Measured values from publication PMC6773438.

B1: Ramazzottius varieornatus damage suppressor protein (Rv Dsup) [Ramazzottius varieornatus] / mononucleosomes reconstituted by salt dialysis with purified recombinant Drosophila core histones [Drosophila] (parent)
chain 1: MASTHQSSTEPSSTGKSEETKKDASQGSGQDSKNVTVTKGTGSSATSAAIVKTGGSQGKDSSTTAGSSSTQGQKFSTTPTDPKTFSSDQKEKSKSPAKEVPSGGDSKSQGDTKSQSDAKSSGQSQGQSKDSGKSSSDSSKSHSVIGAVKDVVAGAKDVAGKAVEDAPSIMHTAVDAVKNAATTVKDVASSAASTVAEKVVDAYHSVVGDKTDDKKEGEHSGDKKDDSKAGSGSGQGGDNKKSEGETSGQAESSSGNEGAAPAKGRGRGRPPAAAKGVAKGAAKGAAASKGAKSGAESSKGGEQSSGDIEMADASSKGGSDQRDSAATVGEGGASGSEGGAKKGRGRGAGKKADAGDTSAEPPRRSSRLTSSGTGAGSAPAAAKGGAKRAASSSSTPSNAKKQATGGAGKAAATKATAAKSAASKAPQNGAGAKKKGGKAGGRKRK
chain 2: not shown
chain 3: not shown
chain 4: not shown
chain 5: not shown

Variants of: B1
Assay: gel mobility shift
Conditions: Dsup/Nucleosome 3.0, mononucleosome, 5S rDNA sequence (147 bp), parent: 73

Row | Variant | response [% Bound]
1 | chain 1 R363E R364E R367E | 47

Same assay, conditions: Dsup/Nucleosome 4.5, mononucleosome, 5S rDNA sequence (147 bp), parent: 95

Row | Variant | response [% Bound]
2 | chain 1 R363E R364E R367E | 69
